Measured values as given in US20220308072A1.

Assays:
[1] = molecular target: Recombinant, his tagged full length human frataxin protein (Abcam ab95502) (human) (UniProt Q16595); assay: Simoa sandwich 2-step; capture Ab-2; frataxin 500 pg/mL
[2] = molecular target: Recombinant, his tagged full length human frataxin protein (Abcam ab95502) (human) (UniProt Q16595); assay: Simoa sandwich 2-step; capture Ab-1
[3] = molecular target: Recombinant, his tagged full length human frataxin protein (Abcam ab95502) (human) (UniProt Q16595); assay: Simoa sandwich 2-step; capture Ab-1; 50 pM SβG; frataxin 0.686 pg/mL
[4] = molecular target: Recombinant, his tagged full length human frataxin protein (Abcam ab95502) (human) (UniProt Q16595); assay: Simoa sandwich 2-step; capture Ab-1; frataxin 6.17 pg/mL
[5] = molecular target: Recombinant, his tagged full length human frataxin protein (Abcam ab95502) (human) (UniProt Q16595); assay: Simoa sandwich 2-step; capture Ab-1; 150 pM SβG; frataxin 55.6 pg/mL
[6] = molecular target: Recombinant, his tagged full length human frataxin protein (Abcam ab95502) (human) (UniProt Q16595); assay: Simoa sandwich 2-step (120 min-5 min); capture Ab-1; Diluent 1 + 10% NCS; frataxin 7.41 pg/mL
[7] = molecular target: Recombinant, his tagged full length human frataxin protein (Abcam ab95502) (human) (UniProt Q16595); assay: Simoa sandwich 3-step; capture Ab-4; frataxin 1000 pg/mL
[8] = molecular target: Recombinant, his tagged full length human frataxin protein (Abcam ab95502) (human) (UniProt Q16595); assay: Simoa sandwich 2-step (120 min-5 min); capture Ab-1; frataxin 2.74 pg/mL
[9] = molecular target: Recombinant, his tagged full length human frataxin protein (Abcam ab95502) (human) (UniProt Q16595); assay: Simoa sandwich; capture Ab-1; no helper beads; frataxin 2.06 pg/mL
[10] = molecular target: Recombinant, his tagged full length human frataxin protein (Abcam ab95502) (human) (UniProt Q16595); assay: Simoa sandwich 3-step; capture Ab-4; frataxin 1000 pg/mL; remark: listed apart in the source
[11] = molecular target: Recombinant, his tagged full length human frataxin protein (Abcam ab95502) (human) (UniProt Q16595); assay: Simoa sandwich 2-step; capture Ab-1; frataxin 0.686 pg/mL
[12] = molecular target: Recombinant, his tagged full length human frataxin protein (Abcam ab95502) (human) (UniProt Q16595); assay: Simoa sandwich 2-step; capture Ab-2; frataxin 18.5 pg/mL
[13] = molecular target: Recombinant, his tagged full length human frataxin protein (Abcam ab95502) (human) (UniProt Q16595); assay: Simoa sandwich; capture Ab-1; no helper beads; frataxin 18.5 pg/mL
[14] = molecular target: Recombinant, his tagged full length human frataxin protein (Abcam ab95502) (human) (UniProt Q16595); assay: Simoa sandwich 2-step; capture Ab-1; 50 pM SβG; frataxin 55.6 pg/mL
[15] = molecular target: Recombinant, his tagged full length human frataxin protein (Abcam ab95502) (human) (UniProt Q16595); assay: Simoa sandwich 2-step (120 min-5 min); capture Ab-1; Diluent 1 + 10% NCS; frataxin 37.0 pg/mL
[16] = molecular target: Recombinant, his tagged full length human frataxin protein (Abcam ab95502) (human) (UniProt Q16595); assay: Simoa sandwich 2-step; capture Ab-1; frataxin 1000 pg/mL
[17] = molecular target: Recombinant, his tagged full length human frataxin protein (Abcam ab95502) (human) (UniProt Q16595); assay: Simoa sandwich 2-step (120 min-5 min); capture Ab-1; Diluent 1 + 5% NCS
[18] = molecular target: Recombinant, his tagged full length human frataxin protein (Abcam ab95502) (human) (UniProt Q16595); assay: Simoa sandwich 2-step (120 min-5 min); capture Ab-1; Diluent 1 + 10% NCS; frataxin 333 pg/mL
[19] = molecular target: Recombinant, his tagged full length human frataxin protein (Abcam ab95502) (human) (UniProt Q16595); assay: Simoa sandwich 3-step; capture Ab-1; frataxin 10000 pg/mL
[20] = molecular target: Recombinant, his tagged full length human frataxin protein (Abcam ab95502) (human) (UniProt Q16595); assay: Simoa sandwich 2-step (120 min-5 min); capture Ab-1; Diluent 1 + 10% NCS
[21] = molecular target: Recombinant, his tagged full length human frataxin protein (Abcam ab95502) (human) (UniProt Q16595); assay: Simoa sandwich; capture Ab-1; no helper beads; frataxin 55.6 pg/mL
[22] = molecular target: Recombinant, his tagged full length human frataxin protein (Abcam ab95502) (human) (UniProt Q16595); assay: Simoa sandwich 3-step; capture Ab-4
[23] = molecular target: Recombinant, his tagged full length human frataxin protein (Abcam ab95502) (human) (UniProt Q16595); assay: Simoa sandwich 3-step; capture Ab-2
[24] = molecular target: Recombinant, his tagged full length human frataxin protein (Abcam ab95502) (human) (UniProt Q16595); assay: Simoa sandwich 2-step (120 min-5 min); capture Ab-1; Diluent 1 + 5% NCS; frataxin 22.2 pg/mL
[25] = molecular target: Recombinant, his tagged full length human frataxin protein (Abcam ab95502) (human) (UniProt Q16595); assay: Simoa sandwich 3-step; capture Ab-4; frataxin 100 pg/mL
[26] = molecular target: Recombinant, his tagged full length human frataxin protein (Abcam ab95502) (human) (UniProt Q16595); assay: Simoa sandwich 3-step; capture Ab-2; frataxin 1000 pg/mL

Chain of UniProt Q16595 (Q16595 42-210): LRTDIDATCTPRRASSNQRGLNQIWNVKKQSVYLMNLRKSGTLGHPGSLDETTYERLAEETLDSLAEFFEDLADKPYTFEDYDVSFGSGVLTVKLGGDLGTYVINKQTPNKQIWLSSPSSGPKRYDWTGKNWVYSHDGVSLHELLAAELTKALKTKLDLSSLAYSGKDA

Work on “Ab-3, mouse monoclonal [18A5DB1] to Frataxin (Abcam ab110328) (antibody)” yielded an Ave AEB [1] of 25.1 AEB, a S/B [1] of 263 and an LOD [2] of 0.27 pg/mL. It also gave an Ave AEB [3] of 0.0421 AEB, a S/B [3] of 2.3 and an Ave AEB [4] of 0.737 AEB. The S/B [4] was 7.1, the Ave AEB [5] was 3.69 AEB and the S/B [5] was 82.3. For the same substance, the Ave AEB [6] was 0.0923 AEB, the S/B [6] was 5.08 and the Ave AEB [7] was 17.2 AEB. For the same substance, the S/B [7] was 359, the AEB rep1 [8] was 0.0165 AEB and the AEB rep2 [8] was 0.0248 AEB. For the same substance, the AEB rep3 [8] was 0.0202 AEB, the Ave AEB [8] was 0.0205 AEB and the S/B [8] was 2.48. The AEB Rep1 [9] was 0.0405 AEB, the AEB Rep2 [9] was 0.043 AEB and the Ave AEB [9] was 0.0418 AEB. The S/B [9] was 1.85, the Ave AEB [10] was 25.2 AEB and the S/B [10] was 215. It also gave an Ave AEB [11] of 0.165 AEB, a S/B [11] of 1.59 and an Ave AEB [12] of 2.15 AEB. It also gave a S/B [12] of 22.5, an AEB Rep1 [13] of 0.363 AEB and an AEB Rep2 [13] of 0.362 AEB. For the same substance, the Ave AEB [13] was 0.363 AEB, the S/B [13] was 16 and the Ave AEB [14] was 1.65 AEB. The S/B [14] was 90, the Ave AEB [15] was 0.174 AEB and the S/B [15] was 16.2. The Ave AEB [16] was 30.7 AEB, the S/B [16] was 384 and the LOD [17] was 0.419 pg/mL. The Ave AEB [18] was 1.56 AEB, the S/B [18] was 145 and the Ave AEB [19] was 28.5 AEB. It also gave a S/B [19] of 576, an LOD [20] of 0.759 pg/mL and an AEB Rep1 [21] of 1.16 AEB. The AEB Rep2 [21] was 0.608 AEB, the Ave AEB [21] was 0.885 AEB and the S/B [21] was 39.1. For the same substance, the LOD [22] was 1.3 pg/mL, the LOD [23] was 1.33 pg/mL and the Ave AEB [24] was 0.395 AEB. It also gave a S/B [24] of 21.9, an Ave AEB [25] of 1.05 AEB and a S/B [25] of 21.9. It also gave an Ave AEB [26] of 20.7 AEB and a S/B [26] of 330.
